Here are results for two molecules from patent US6165732A, “Method for identifying apoptosis modulating compounds” (Washington University, priority 1998, dated 2000).

The subject of one series is cell death. The settings on record: known activity; cited from earlier work.
Series [1] in a line: Channel forming activity of peptide in planar lipid bilayers which lack BCL-2 related proteins. Type of series: biochemical. As to conditions: bilayers lacking BCL-2 related proteins.
The target in a further series is T1, Bcl-2 channel (Mus musculus, UniProt P10417).
T1 construct: proteoliposomes fused to planar lipid bilayer
T1 sequence (P10417 1-218): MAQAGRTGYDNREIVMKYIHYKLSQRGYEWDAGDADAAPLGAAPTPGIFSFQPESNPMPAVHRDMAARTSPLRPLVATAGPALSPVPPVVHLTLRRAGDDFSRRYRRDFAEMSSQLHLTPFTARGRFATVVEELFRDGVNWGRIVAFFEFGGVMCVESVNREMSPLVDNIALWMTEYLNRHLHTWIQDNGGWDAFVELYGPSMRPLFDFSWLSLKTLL
The experiment in a line: Effect of Bax death agonist peptide on Bcl-2 channel in planar lipid bilayer. Type of series: biochemical, murine. The settings on record: for effect on conductance pattern of Bcl-2 channel: 20 to 100 μM; for effect on ion selectivity of Bcl-2 channel: peptide added to Bcl-2 channel. From the text:
(§1) The Bax and Bcl-2 polypeptides used in the ion channel studies reported herein were recombinant murine Bcl-2 and Bax polypeptides lacking the C-terminal signal-anchor membrane targeting sequence (Bcl-2ΔC21, amino acids 1-218 of SEQ ID NO:9 and BaxΔC19, amino acids 1-173 of SEQ ID NO:6). These deletion derivatives, also referred to herein as BaxΔTM and Bcl-2ΔTM, were used to avoid any interference of the C-terminal signal-anchor membrane targeting sequence with the capacity of internal α helices to mediate insertion into artificial lipid bilayers.
(§2) Proteoliposomes for fusion with a planar lipid bilayer were prepared as follows. Purified protein (0.25 μg) was added to […] lipid (Azolectin) in 20 μl of KCl buffer (150 mM KCl, 10 mM HEPES, pH 7.0). This mixture was placed into a dialysis bag with a molecular weight cutoff of 12 KDa. After 16 hours dialysis in 3000 volumes of 150 mM KCl (10 mM HEPES, pH 7.0) the proteoliposome suspension was removed and placed on ice for immediate use. The bilayer was set up with a 450:150 cis to trans KCl gradient to identify the ion selectivity of the initial currents. Fusion was initiated by adding 5-20 μl of lipid vesicles (only 5-20 ng of protein) to the cis bilayer chamber with mixing. Non-fused proteoliposomes were removed from the compartments and solutions exchanged as described above.
(§3) Control bilayers containing Bcl-2 or Bax channels were prepared by fusion of unilamellar proteoliposomes with incorporated Bcl-2ΔTM or BaxΔTM with an established planar bilayer as described in Example 4. Test bilayers containing Bcl-2 channels were prepared in the same manner to which an 11 mer Bax peptide (SEQ ID NO:1) with known death agonist activity was added at 20, 50 or 100 μM. A voltage of 80 mV was applied to each control and test channel and its conductance measured for a period of 12 to 16 seconds and the frequency that each channel was measured at a particular conductance level (pA) was calculated. The data, representing about 500,000 measurements, are shown as histograms in FIGS. 8A-8E.
Bilayers containing Bcl-2 and Bax channels were prepared as described in Example 4 with 150 mM KCl on both sides of the bilayer. The death agonist peptide was added to the cis side of a Bcl-2 channel at 150 μM. The voltage dependence of the currents and the ion selectivity for the Bcl-2 channel in the absence and presence of the death agonist peptide, as well as the Bax channel were determined and the data are shown in FIGS. 9A-C.

A further series relates to Bax channel. The experiment in a line: Effect of Bax 11-mer peptide on Bax channel in planar lipid bilayer. Type of series: biochemical, murine. As to conditions: 20 to 100 μM.
Series [2] in a line: Channels in planar lipid bilayers at pH 7.0 after fusion with unilamellar proteoliposomes containing the protein. In kind it is biochemical.
Excerpt: as §1
(§4) Planar lipid bilayers were prepared from soybean lipids by chloroform extraction of Azolectin Type II (10-20% choline, 80-90% negatively charged lipids) (Sigma). The chloroform was removed with a stream of nitrogen and the lipids stored under N2 until dissolved in decane at 30 mg/ml. This preparation was then stored under nitrogen. The 0.25 mm orifice of a polystyrene cuvette (Warner Instruments) was pretreated with 2 μl of the decane lipid solution and the solvent allowed to evaporate. The cuvette was then placed into a bilayer chamber and connected to Bilayer Clamp BC525-a (Warner Instruments) by Ag/AgCl electrodes via agar salt bridges. Data were collected using an Axoscope (Axon Instruments Software), archived on video tape using a Neurocorder DR-484 (Neuro Data Instruments), and analyzed using Origin (Microcal) and pClamp6 (Axon Instruments Software). Slope conductance was calculated by the method of least squares and the variance is given. Ion selectivities were calculated using the reversal potential and the Goldman equation. The reversal potential means the zero-current potential of a bilayer membrane. The reversal potential is zero with no ion gradient and the magnitude of the potential in the presence of an ion gradient reflects the cation versus anion selectivity of the bilayer.
as §2
as §3, with “8A-8E. […]” for “8A-8E.”

The conditions of series [3]: cited from earlier work.
Series [4] in a line: Low pH channel formation after addition of protein to an established planar lipid bilayer. In kind it is biochemical. As to conditions: for conductance of initial channel: pH 4.0, initial current.
Excerpt: as §1, §4
Bilayers were formed by spreading with a polished glass rod and allowed to thin to a capacitance of 0.4 μF/cm^2 at which point the noise was typically 0.2 pA and the leak conductance was 20 pS. The salt concentrations were initially 450 mM KCl in the cis chamber (1.0 ml) and 150 mM KCl in the trans chamber (0.5 ml) to permit identification of spontaneous initial currents. Outward (positive) currents were defined as K^+ moving cis-to trans. All solutions were buffered to pH 4.0 with 10 mM K-acetate. BaxΔTM or Bcl-2ΔTM (approx. 1 μg) was added to the cis chamber with mixing. After initial currents were identified the soluble protein was usually removed by exchanging the cis chamber contents with aliquots of buffer.

Series [5] in a line: Cl- release (efflux) from KCl loaded synthetic lipid vesicles as a function of pH. Type of series: biochemical. As for the experimental part: This example illustrates that Bax and Bcl-2 induce the release of ions from synthetic lipid vesicles.
Unilamellar vesicles composed of 40% 1,2 dioleoyl phosphatidyl glycerol and 60% 1,2 dioleoyl phosphatidyl choline (Avanti Polar Lipids) were prepared in 100 mM KCl, 2 mM CaNO3 and 10 mM dimethylglutarate, pH 5.0 as previously described (Peterson et al., J. Membr. Biol. 99:197-204, 1987). The resulting liposomes were diluted 200-fold to a concentration of 0.05 mg/ml in 100 mM KNO3, 2 mM CaNO3 and 10 mM dimethylglutarate which was titrated to pH 3.5, 4.0, 4.5, 5.0, 5.5 or 6.0 with NaOH or with acetic acid. BaxΔC19 and Bcl-2ΔC21 were added at a concentration of 500 ng/ml and Cl^- efflux was measured with a Cl^- combination ion selective electrode (Accumet). Triton X-100 (0.1%) was added to release the total encapsulated Cl^- at the times indicated by the arrows in FIG. 1. The total amount of Cl^- released was quantitated by a calibration curve produced by successive additions of 25 μM KCl.

The conditions of series [6]: cited from earlier work. The source holds these as a separate data set.
Where [7] appears, read: 450/150 mM KCl gradient, pH 7.0.
The mark [8] stands for this setting: stated as behaviour like Bax / Bcl-2 (criterion).

As for ECLKRIGDELD [Bax 11mer peptide], in the series on cell death, the “cell death induction (known)” value is reported as “known to induce cell death”. Moreover, in [1], the channel forming activity entry was “no channel forming activity”. In addition, the “single remaining conductance peak of Bcl-2 channel” value with Bcl-2 channel (100 μM peptide, 80 mV) is “about 65 pA”. Also, the “pK/pCl of Bcl-2 channel with peptide” value with Bcl-2 channel (150 μM peptide, cis side) amounted to 0.26±0.05. Besides, in the series with Bcl-2 channel (150 μM peptide, symmetrical 150 mM KCl), the “slope of Bcl-2 channel current at negative potentials” value is “linear and intermediate between that of Bcl-2 and Bax alone”. Moreover, the “effect on rectification of Bcl-2 channel” value with Bcl-2 channel (150 μM peptide, symmetrical 150 mM KCl, listed as death agonist peptide) is recorded as “imparted rectification”. Besides, the “effect on conductance pattern of Bcl-2 channel” value with Bcl-2 channel is on record as “a simpler single channel conductance pattern”; with Bcl-2 channel (listed as 11 mer Bax peptide), “changes its characteristic conductance pattern in a progressive manner”. Besides, the results for the “effect on ion selectivity of Bcl-2 channel” value in the series with Bcl-2 channel and with Bcl-2 channel (listed as death agonist peptide) were “Cl^- selectivity” and “reversed the ion selectivity of the Bcl-2 channel”, respectively. For the same molecule, the “effect on activity of Bax channels” value in the series with Bax channel is “not affected”.

B1: Bcl-2: recombinant murine Bcl-2 polypeptide lacking the C-terminal signal-anchor membrane targeting sequence (amino acids 1-218 of SEQ ID NO:9) (protein)
chain: MAQAGRTGYDNREIVMKYIHYKLSQRGYEWDAGDADAAPLGAAPTPGIFSFQPESNPMPAVHREMAARTSPLRPLVATAGPALSPVPPCVHLTLRRAGDDFSRRYRRDFAEMSSQLHLTPFTARGRFATVVEELFRDGVNWGRIVAFFEFGGVMCVESVNREMSPLVDNIALWMTEYLNRHLHTWIQDNGGWDAFVELYGPSMRPLFDFSWLSLKTLL
In turn, B1 displayed a single channel current in [2] (450/150 mM KCl gradient, FIG. 5A) of 5 pA. For the same molecule, in [2] (setting [7]), the “PK/PCl from reversal potential” value is on record as 2.4 and the “initial current (direction)” value is “outward (K^+) current”. For the same molecule, the conductance pattern result in series [2] (neutral pH) is reported as “complex multichannel conductance pattern”. Also, the “ion selectivity of channel” value in series [2] (neutral pH, proteoliposome fusion) was “K^+ -selective”. Further, the “voltage dependence of open channel current” value in [2] (symmetrical 150 mM KCl) is “linear”. Moreover, in series [2] (symmetrical 150 mM KCl, FIG. 5C), the “hyperpolarization beyond which a channel closure occurs” value was “more than -70 mV”. The slope conductance in series [2] (symmetrical 150 mM KCl, pH 7.0) is 1.08 (s.d. 0.10, n=5) nS. The rectification result in series [2] (symmetrical KCl, neutral pH) is listed as “no rectification”. Also, the “pore forming activity in lipid vesicles” value in series [3] (pH above 5.5) is on record as “little or no detectable pore forming activity”. Further, the “insertion into synthetic lipid vesicles” value in series [3] (pH values below 5.5) is given as “insert into synthetic lipid vesicles at pH values below 5.5”. For the same molecule, the “antagonism of BaxΔTM pore-forming activity in liposomes” value in [3] (physiological pH (Antonsson et al.)) is “antagonized”. The “initial current (direction)” value in series [4] (450/150 mM KCl cis to trans, pH 4.0, spontaneous (OS)) is on record as “initial outward”. In addition, in [4] (450/150 mM KCl, pH 4.0), the “PK/PCl of initial current” value is given as 3.9, the “magnitude of initial current” value turned out to be 0.85±0.06 pA and the “time to appearance of initial current” value is at most 5 min. In addition, in [4] (450/150 mM KCl), the “conductance of initial channel” value is given as 80.3±0.06 pS. In series [4] (450/150 mM KCl, listed as Bcl-2ΔTM), the “conductance of initial channel” value is recorded as 80 pS. Moreover, in series [4] (pH 4.0), the “duration of initial state” value was 2 to 5 min and the “slope conductance of final stable channel” value was found to be 1.90±0.06 nS. Moreover, the “duration of channel open periods” value in series [4] (pH 4.0, with brief closures) lay within 5 to 10 s. In addition, the “effect of shifting pH on conductance and selectivity” value in series [4] (pH 4.0 to 7.0) is recorded as “not Bcl-2”. Further, the “PK/PCl after pH shift to 7.0” value in series [4] (pH 7.0 after insertion at pH 4.0) came to 6.5. The “conductance of large pore after pH shift to 7.0” value in series [4] (pH shifted to 7.0, FIG. 4E) is 2.14±0.04 nS. The “ion selectivity of channel” value in series [4] (planar bilayers, low pH insertion) is given as “mild cation selectivity”. Also, the “inactivation of Cl- release” value in [5] (by pH 5.0, 500 ng/ml, FIG. 1B) is given as “complete inactivation”. Besides, in series [5] (pH 3.5), the “Cl- release from KCl loaded lipid vesicles” value is recorded as 81% and the “relative activity of Bcl-2 versus Bax (Cl- release)” value was “twice as active as Bax”. The “Cl- release from KCl loaded lipid vesicles” value in series [5] (pH 4.0, same quantities of each protein) was 75%. The “Cl- release from KCl loaded lipid vesicles” value in series [5] (pH 5.0) stood at 7%. The “release of Cl- on pH shift” value in [5] (pH 5.0 shifted to 4.0, FIG. 1D) is given as “activated the release of Cl^-”. Also, in [5] (setting [8]), the “ratio of channel indicator release at pH 3.5 and pH 4.0 (R3.5/4.0)” value is on record as “about 1.0”; the “ratio of indicator release at pH 4.0 and 5.0 (R4.0/5.0)” value is “greater than 7.0”. For the same molecule, in series [6] (lipid bilayers, physiological pH (Schendel et al.)), the primary channel conductance is reported as 18±2 pS. Besides, in series [6] (pH 5.4 (Schendel et al.)), the ion selectivity result is “cation selective”. In [6] (planar lipid bilayers, physiological pH), the multiple conductance states result is reported as “multiple channel conductance states”.
